What was measured:
[1] = target: T1, E50K optineurin-GFP (OPTN_(E50K)-GFP) (human, UniProt Q96CV9 1-577, E50K); test: co-IP; Tet-on inducible RGC5 cells, doxycycline 1 ug/ml 16 h, expressing OPTNWT-, OPTN_(E50K)- or OPTN_(L157A)-GFP; lysate precipitated with polyclonal anti-GFP; eluates blotted with monoclonal anti-Rab8 or anti-TfR and anti-GFP; band intensity ratio relative to wild type
T1 construct: optineurin, human, with the glaucoma-associated mutation Glu50 to Lys; also called E50K mutant; not shown: GFP, C-terminal, kept

[2] = target: T2, L157A optineurin-GFP (OPTN_(L157A)-GFP) (human, UniProt Q96CV9 1-577, L157A); test: as above
T2 construct: optineurin, human, with the point mutation Leu157 to Ala made by site-directed mutagenesis; also called L157A mutant; not shown: GFP, C-terminal, kept
T2 sequence (Q96CV9 whole entry L157A): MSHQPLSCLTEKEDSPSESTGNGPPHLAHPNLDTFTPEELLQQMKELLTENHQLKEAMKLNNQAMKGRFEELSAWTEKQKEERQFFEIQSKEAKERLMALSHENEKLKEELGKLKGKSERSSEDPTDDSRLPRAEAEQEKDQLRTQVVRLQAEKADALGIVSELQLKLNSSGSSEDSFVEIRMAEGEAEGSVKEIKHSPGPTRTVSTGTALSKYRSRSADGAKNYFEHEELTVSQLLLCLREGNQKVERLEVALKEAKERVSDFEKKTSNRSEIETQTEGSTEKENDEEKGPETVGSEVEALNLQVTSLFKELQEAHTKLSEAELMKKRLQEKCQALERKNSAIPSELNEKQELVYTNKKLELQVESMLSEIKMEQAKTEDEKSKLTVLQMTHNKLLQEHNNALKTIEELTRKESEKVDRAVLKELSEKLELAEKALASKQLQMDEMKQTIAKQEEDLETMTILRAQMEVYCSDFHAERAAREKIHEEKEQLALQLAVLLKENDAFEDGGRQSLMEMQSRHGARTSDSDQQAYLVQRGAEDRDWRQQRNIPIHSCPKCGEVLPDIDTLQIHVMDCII

T1 sequence (Q96CV9 whole entry E50K): as the sequence (Q96CV9 whole entry L157A) above, with E50K, A157L counted along it
Chain of endogenous Rab8 of RGC5 cells (P35280 whole entry): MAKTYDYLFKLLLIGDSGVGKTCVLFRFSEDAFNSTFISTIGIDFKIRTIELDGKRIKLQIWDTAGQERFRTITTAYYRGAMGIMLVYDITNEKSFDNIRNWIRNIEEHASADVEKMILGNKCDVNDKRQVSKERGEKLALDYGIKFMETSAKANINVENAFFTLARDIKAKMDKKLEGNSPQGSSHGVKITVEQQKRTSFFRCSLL

| Molecule | fold increase of co-precipitated Rab8 against OPTNWT-GFP (fold higher than wild type) [1] | fold reduction of Rab8 binding against OPTNWT-GFP (fold lower than wild type) [2] | fold increase of co-precipitated TfR against wild type optineurin ([1]; partners not purified) | fold reduction of co-precipitated TfR against wild type optineurin ([2]; partners not purified) |
| --- | --- | --- | --- | --- |
| endogenous Rab8 of RGC5 cells (from UniProt P35280 1-207) (natural protein) | 5 | 5 |  |  |
| endogenous transferrin receptor (TfR) of RGC5 cells (receptor, rat (endogenous in RGC5), UniProt Q99376 1-761, looked up, transferrin receptor, endogenous in rat RGC5 cells, detected as a 95-kDa band by mouse monoclonal anti-human TfR (Zymed); The abstract calls RGC5 a rat cell line; also called 95-kDa TfR; source: endogenous, RGC5 lysate) MMDQARSAFSNLFGGEPLSYTRFSLARQVDGDNSHVEMKLAADEEENADSNMKASVRKPKRFNGRLCFATIAVVIFFLIGFMIGYLGYCKRVEQKEECVRLAEAEEADKSENDETEYVPKSSRLFWADLKTLLSEKLNSIEFTDIIKQLSQNTYTPREAGSQKDENLAYYIENLFHDFKFSKVWRDEHYVKIQVKNSVSQNLVTINSGSNIDPVEAPEGYVAFSKAGEVTGKLVHANFGTKKDFEELNYSVNGSLVIVRAGKITFAEKVANAQSFNAIGVLIYMDRNTFPVVEADLQFFGHAHLGTGDPYTPGFPSFNHTQFPPSQSSGLPSIPVQTISRAAAEKLFKNMEGNCPPSWNIDSSCKLELSQNQNVKLTVNNVLKETRILNIFGVIKGYEEPDRYIVVGAQRDAWGPGVAKSSVGTGLLLKLAQVFSDMISKDGFRPSRSIIFASWTAGDYGAVGATEWLEGYLSSLHLKAFTYINLDKVVLGTSNFKVSASPLLYTLMGKIMQDVKHPIDGKYLYRDSNWISKIEELSLDNAAFPFLAYSGIPAVSFCFCEDEDYPYLGTKLDTYEILIQKVPQLNQMVRTAAEVAGQFIIKLTHDIELTLDYEMYNSKLLSFMKDLNQFKADIKDMGLSLQWLYSARGDYFRATSRLTTDFHNAEKTNRFVMREINDRIMKVEYHFLSPYVSPRESPFRHIFWGSGSHTLSALVENLRLRQKNITAFNETLFRNQLALATWTIQGVANALSGDIWNIDNEF |  |  | ~10 fold higher than wild type | ~5 fold lower than wild type |

From article PMC2902519, “Impairment of Protein Trafficking upon Overexpression and Mutation of Optineurin” (PLoS ONE, 2010)
